Results reported in patent US20240076386A1 (Pfizer, published 2024).

T1: human P-selectin expressed on CHO cells (human, UniProt P16109 42-830)
T1 construct: whole, on cells; also called CHO-human P-selectin cells; CHO-P-selectin cells
T1 sequence (looked up): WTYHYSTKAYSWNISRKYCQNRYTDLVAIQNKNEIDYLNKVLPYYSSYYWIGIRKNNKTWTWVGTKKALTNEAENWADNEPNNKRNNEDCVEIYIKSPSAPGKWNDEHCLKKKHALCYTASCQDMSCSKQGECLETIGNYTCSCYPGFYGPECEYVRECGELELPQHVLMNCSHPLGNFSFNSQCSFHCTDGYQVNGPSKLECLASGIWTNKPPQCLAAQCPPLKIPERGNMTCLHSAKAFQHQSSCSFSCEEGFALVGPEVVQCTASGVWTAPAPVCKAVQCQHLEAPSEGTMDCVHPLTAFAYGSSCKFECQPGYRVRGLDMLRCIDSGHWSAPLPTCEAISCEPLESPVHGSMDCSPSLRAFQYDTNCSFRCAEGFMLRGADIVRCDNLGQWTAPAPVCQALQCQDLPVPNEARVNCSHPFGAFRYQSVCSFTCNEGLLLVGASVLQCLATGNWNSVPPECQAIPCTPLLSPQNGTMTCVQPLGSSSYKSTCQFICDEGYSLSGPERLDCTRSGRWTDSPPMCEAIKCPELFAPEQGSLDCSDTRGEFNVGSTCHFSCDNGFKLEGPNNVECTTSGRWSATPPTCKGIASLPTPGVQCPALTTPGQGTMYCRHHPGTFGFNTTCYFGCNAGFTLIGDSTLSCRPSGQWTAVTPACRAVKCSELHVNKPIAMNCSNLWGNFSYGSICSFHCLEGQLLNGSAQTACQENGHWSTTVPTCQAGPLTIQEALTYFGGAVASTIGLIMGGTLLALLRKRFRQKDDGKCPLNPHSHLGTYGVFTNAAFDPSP

T2: soluble recombinant human P-selectin (human, UniProt P16109 42-771, limits assumed)
T2 sequence (looked up): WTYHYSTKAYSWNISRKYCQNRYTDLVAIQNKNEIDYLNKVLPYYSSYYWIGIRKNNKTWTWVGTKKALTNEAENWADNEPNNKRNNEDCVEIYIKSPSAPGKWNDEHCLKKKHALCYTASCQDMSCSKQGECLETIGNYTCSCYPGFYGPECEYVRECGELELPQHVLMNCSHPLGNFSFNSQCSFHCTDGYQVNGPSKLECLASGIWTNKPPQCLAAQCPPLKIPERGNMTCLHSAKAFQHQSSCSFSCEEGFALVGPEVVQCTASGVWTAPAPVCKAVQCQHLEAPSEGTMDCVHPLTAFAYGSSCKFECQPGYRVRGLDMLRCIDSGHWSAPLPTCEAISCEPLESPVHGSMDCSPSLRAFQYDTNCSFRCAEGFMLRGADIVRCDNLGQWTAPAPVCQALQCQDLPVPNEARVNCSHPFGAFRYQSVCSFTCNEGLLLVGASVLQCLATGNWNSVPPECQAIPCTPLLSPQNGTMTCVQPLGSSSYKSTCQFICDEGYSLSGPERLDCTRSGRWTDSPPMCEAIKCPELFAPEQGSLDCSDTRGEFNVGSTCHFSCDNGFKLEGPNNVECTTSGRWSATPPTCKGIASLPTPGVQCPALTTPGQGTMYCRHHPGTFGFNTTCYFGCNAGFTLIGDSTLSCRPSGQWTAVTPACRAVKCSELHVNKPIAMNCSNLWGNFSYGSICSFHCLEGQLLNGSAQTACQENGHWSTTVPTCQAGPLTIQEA


Each binder was assayed against T1, human P-selectin expressed on CHO cells (assay: flow cytometry, CHO cells).
Procedure: Cells were maintained in growth medium at 37° C., 5% CO₂ and 95% air in a humidified incubator. Methotrexate or Zeocin were removed from the medium prior to culture for experiments. CHO-E selectin cells or P-selectin cells were detached from T-150 flasks using citric saline (135 mM KCl, 15 mM sodium citrate) and immediately re-calcified with the addition of CaCl₂) to the detached cells to a final concentration of 1 mM. Growth media was immediately added to the detached cells, then centrifuged at 300×g for 5 minutes at room temperature to pellet the cells. Cells were plated into 96-well V-bottom plates in cold CHO buffer consisting of phosphate buffered saline (PBS), pH 7.4 containing bovine serum albumin (BSA; Sigma-Aldrich) at final concentration of 1%, calcium chloride at final concentration of 1 mM, and sodium azide at a final concentration of 0.1%, for 5 minutes on wet ice. After incubation, the cells were centrifuged at 300×g for 2 minutes at 4° C. to remove the buffer.
After incubation, antibodies were removed and the cells were washed three times by centrifugation at 300×g for 1 minute at 4° C. and resuspended in cold CHO buffer. The washed cells were incubated for 30 minutes on wet ice with 100 μL of a 1:1000 dilution of APC-conjugated AffiniPure F(ab′)₂ Fragment Goat Anti-human IgG, Fcγ (Jackson Imnnunoresearch). The cells were washed three or four times prior to resuspension in CHO buffer for flow cytometric analysis. A Becton Dickinson LSRFortessa instrument using 640 nanometer laser line was used to acquire cell fluorescence data. Geometric mean fluorescence of cells was analyzed by FlowJo software package (FlowJo, LLC) and plotted against antibody concentration. The estimated EC₅₀ values were calculated using nonlinear regression analysis in the Prism suite (GraphPad, version 8) (Table 8).

binding result | Binder
no binding | anti-E-selectin antibody 0159 chimera (antibody, human IgG1, kappa, V domains shown, rat VH/VL on effector-null human IgG1 and human kappa) VH: EVQLQQSGAELGKPGTSVKLSCKVSGYNIRSTYMHWVSQRPGKGLEWIGRIDPANGNTIYAEKFKRKATLTADTSSNTAYMQLSQLKSDDRAIYFCAMEVRVSFEYWGQGVMVTVSS VL: DIQMTQSPSFLSASVGDRVTINCKASQNINKYLDWYQQKLGEGPKLLIYYTNNLHTGIPSRFSGSGSGTDFTLTISSLQPEDVATYFCLQHDSGYTFGAGTKLELKR
no binding | anti-E-selectin antibody 0170 chimera (antibody, human IgG1, kappa, V domains shown, rat VH/VL on effector-null human IgG1 and human kappa) VH: EVQLQQSGAELGKPGTSVKLSCKVSGYSIRSTYMHWVNQRPGKGLEWVGRIDPANGNTIYAERFKNKATLTADTSSNTAYMQLSQLKSDDTAIYFCAVEILGIFDYWGQGVMVTVSS VL: DIQMTQSPSFLSASVGDRVTINCKASQNIDKYLDWYQQKLGEAPKLLMYNTNSLHTGIPSRFSGSGSGTDFTLTISSLQPEDVATYFCLQHNSGYTFGAGTKLELKR
no binding | anti-E-selectin antibody 0158 chimera (antibody, human IgG1, kappa, V domains shown, rat VH/VL on effector-null human IgG1 and human kappa) VH: QVQLKESGPGLVQPSETLSLTCTVSGFSISTYNVHWLRQPPGKGLEWMGMMWSGGSPDYNSALKSRLSISRDTSKNQVFLKMNSLQSEDTTTYYCARWGGGFDYWGQGVMVTVSS VL: DIVLTQSPTTLSVTPGETVSLSCRASHSIGTNLHWYQQKTNESPRLLIKFTSQSISGIPSRFSASGSGTDFTLNINNVEFDDVSSYFCQQTQSWPLTFGSGTKLEIKR
no binding | anti-E-selectin antibody 0180 chimera (antibody, human IgG1, kappa, V domains shown, rat VH/VL on effector-null human IgG1 and human kappa) VH: EVQLQQSGAELGKPGTSVKLSCKVSGYKIRSSYMHWVNQRPGKGLEWIGRIDPANGNTIYGDKFKSKATLTSDTSSNTAYIQLSQLKSDDTAIYFCAIDIGTTFDYWGQGVMVTVSS VL: DIQMTQSPSFLSASVGDRVTINCKASQHINRYLNWYQQKLGEAPKLLIYDANNLQTGIPSRFSGSGSGTDFTLTISSLQPEDVATYFCLQHNSWPNTFGAGTKLELKR
no binding | anti-E-selectin antibody 0164 chimera (antibody, human IgG1, kappa, V domains shown, rat VH/VL on effector-null human IgG1 and human kappa) VH: EVQLQQSGAEFGKPGTSVKLSCKVSGYNIRSSYMHWVNQRPGKGLEWIGRIDPANGNTIYAEKFKIKAILTADSSSNTAYMQLSQLKSDDTAIYFCAMDLYSTSEYWGQGVMVTVSS VL: DIQMTQSPSFLSASVGDRVTINCKTSQNINRYLNWYQQKLGEAPKLLIYNANSLQTGIPSRFSASGSGTDFTLTINSLQPEDVATYFCLQDNSWPLTFGSGTKLEIKR

These binders were tested against T2, soluble recombinant human P-selectin (assay: direct binding ELISA on immobilized human P-selectin, absorbance at 450 nm).
Procedure: Recombinant histidine tagged human P-, E- or L-selectin (Sino Biologicals), mouse E-selectin (Sino Biologicals), rat E-selectin (Sino Biologicals) and Cynomolgus monkey E-selectin (Sino Biologicals) stock solutions were prepared to a final concentration of 1 μg/mL in phosphate buffered saline without calcium and magnesium. Controls included an L-selectin directed antibody (BioLegend; 304811) or P-selectin directed antibody or a negative control IgG. One hundred μL per well of the diluted recombinant selectin proteins were added into a Ni-NTA HisSorb 96 well plate (Qiagen; 35061). Plates were incubated on an orbital shaker at room temperature for 2 hours. Following the incubation, the plates were washed 3 times with 200 μL of wash buffer (50 mM TRIS [trisaminomethane]; 150 mM sodium chloride; 0.05% polysorbate 20, pH 7.4). To decrease nonspecific binding, plates were treated with 200 μL of blocking buffer (BD Opteia buffer; 555213; BD Biosciences), incubated on an orbital shaker for 1 hour at room temperature and washed as described above. […] One hundred μL specific detection antibodies (described below) were added and incubated for 1 hour: [0556] […] Anti L-selectin and anti-rat-E-selectin antibodies were detected using 1 to 25000 dilution of Peroxidase-conjugated AffiniPure Goat Anti-Mouse IgG (H+L); (Jackson ImnnunoResearch Lab).
Plates were washed and 100 μL per well of 1-Step Ultra TMB substrate (Thermo Scientific) was added and incubated for 5 minutes at room temperature. Reactions were stopped with 100 μL of 2 M sulfuric acid and absorbance read at 450 nm (Spectramax M5e).

binding result | Binder
no binding (tested: 10 ug/ml) | humanized anti-E-selectin antibody 0841 (antibody, human IgG1, kappa, V domains shown, effector-null human IgG1, kappa) VH: EVQLVESGGGLVQPGGSLRLSCAASGYNIRSSYMHWVRQAPGKGLEWVARIDPANGNTIYAEKFKIRFTISADNAKNSAYLQMNSLRAEDTAVYYCAMDLYSTSEYWGQGTLVTVSS VL: DIQMTQSPSSLSASVGDRVTITCKTSQNINRYLNWYQQKPGKAPKLLIYNANSLQTGVPSRFSGSGSGTDFTLTISSLQPEDFATYFCLQDNSWPLTFGQGTKVEIKR
no binding (tested: 10 ug/ml) | optimized anti-E-selectin antibody 1282 (antibody, human IgG1, kappa, V domains shown, effector-null human IgG1, kappa) VH: EVQLVESGGGLVQPGGSLRLSCAASGYAIRSAYMHWVRQAPGKGLEWVARIDPANGNTIYVDSVEGRFTISADNAKNSAYLQMNSLRAEDTAVYYCAMDLYSTSEYWGQGTLVTVSS VL: DIQMTQSPSSLSASVGDRVTITCKTSQNIERYLNWYQQKPGKAPKLLIYAASSLQSGVPSRFSGSGSGTDFTLTISSLQPEDFATYFCLQDNAWPLTFGQGTKVEIKR
no binding (tested: 10 ug/ml) | optimized anti-E-selectin antibody 1284 (antibody, human IgG1, kappa, V domains shown, effector-null human IgG1, kappa) VH: EVQLVESGGGLVQPGGSLRLSCAASGYAIRSAYMHWVRQAPGKGLEWVARIDPANGNTIYVESVEGRFTISADNAKNSAYLQMNSLRAEDTAVYYCAMDLYSTSEYWGQGTLVTVSS VL: DIQMTQSPSSLSASVGDRVTITCKTSQNIERYLNWYQQKPGKAPKLLIYAASSLQSGVPSRFSGSGSGTDFTLTISSLQPEDFATYFCLQDNAWPLTFGQGTKVEIKR
no binding (tested: 10 ug/ml) | optimized anti-E-selectin antibody 1448 (antibody, human IgG1, kappa, V domains shown, effector-null human IgG1, kappa) VH: EVQLVESGGGLVQPGGSLRLSCAASGYAIRSAYMHWVRQAPGKGLEWVARIDPANGNTIYVDSVKERFTISADNAKNSAYLQMNSLRAEDTAVYYCAMDLYSTSEYWGQGTLVTVSS VL: DIQMTQSPSSLSASVGDRVTITCKTSQNIERYLNWYQQKPGKAPKLLIYAASSLQSGVPSRFSGSGSGTDFTLTISSLQPEDFATYFCLQDNAWPLTFGQGTKVEIKR
no binding (tested: 10 ug/ml) | optimized anti-E-selectin antibody 1444 (antibody, human IgG1, kappa, V domains shown, effector-null human IgG1, kappa) VH: EVQLVESGGGLVQPGGSLRLSCAASGYAIRSAYMHWVRQAPGKGLEWVARIDPANGNTIYVDSVTGRFTISADNAKNSAYLQMNSLRAEDTAVYYCAMDLYSTSEYWGQGTLVTVSS VL: DIQMTQSPSSLSASVGDRVTITCKTSQNIERYLNWYQQKPGKAPKLLIYAASSLQSGVPSRFSGSGSGTDFTLTISSLQPEDFATYFCLQDNAWPLTFGQGTKVEIKR
